In paper PMC7547722, “A versatile soluble siglec scaffold for sensitive and quantitative detection of glycan ligands” (Nature Communications, 2020):
Values joined by “and” are separate entries in the source; they are usually repeats but may differ in a detail not shown here. Equal entries are not always repeated.

How the values were obtained:
eosinophils (Siglec-8+) = assay: Siglec ligands on peripheral blood immune cells, flow cytometry; type: cell-based, human; set-up: key: median fluorescence intensity (MFI) of Siglec-Fc complex binding; conditions: replicate values
Description: (§1) Siglec supernatant (50 μL) or purified Siglec was incubated with cells in a 96-well U-bottom plate for 30 min at 4 °C. Following the incubation, 200 μL of flow buffer (HBSS, 0.1% BSA, 5 mM EDTA) was added and the plate was spun down at 300 rcf for 5 min. Strep-Tactin-AF647 (0.55 μg/mL, 50 μL, 0.57 pmol), streptavidin (Biolegend), or anti-human IgG1 (Biolegend) was added to the cells and incubated for 30 min at 4 °C. After, 200 μL of flow buffer (HBSS, 0.1% BSA, 5 mM EDTA) was added and the plate was spun down at 300 rcf for 5 min. The cells were resuspended in 200 μL of flow buffer and processed through the flow cytometer.
(§2) Strep-Tactin-AF647 (0.55 μg/mL, 0.57 pmol), streptavidin (Biolegend), or anti-human igG1 (Biolegend) was added to Siglec supernatant (50 μL) or purified Siglec and allowed to sit at 4 °C for 15 min. After, the pre-complexed solution was added to cells in a 96-well U-bottom plate for 30 min at 4 °C. After, 200 μL of flow buffer (HBSS, 0.1% BSA, 5 mM EDTA) was added and the plate was spun down at 300 rcf for 5 min. The cells were resuspended in 200 μL of flow buffer and processed through the flow cytometer.
(§3) For human splenocytes, the sample was homogenized in media through a 40 µm filter (Corning) under sterile conditions. Samples were centrifuged at 300 rcf for 5 min. The resulting pellet from the spleen sample and whole human blood were treated with RBC lysis buffer (7 min) and centrifuged at 300 rcf and the RBC lysis was repeated twice more until no RBC remained in the pellet. Samples were treated with human Fc-receptor blocking agent (TruStain FX, Biolegend) in flow buffer (HBSS, 0.1% BSA, 5 mM EDTA). For analysis, the following cocktail was used: hSig8 (PerCP/Cy5.5, clone 7C9, Biolegend cat. no. 347108, 1:200), hCD123 (PE/Cy7, clone 6H6, Biolegend cat. no. 306010, 1:200), hCD19 (PE, clone SJ25C1, Biolegend cat. no. 363004, 1:200), hCD3 (FITC, BD Pharmingen cat. no. 555332, 1:50), hCD14 (BV605, clone M5E2, BD Horizon cat. no. 564056, 1:200), hCD15 (BUV395, clone HI98, BD Horizon cat. no. 563872, 1:200), hCD56 (BV510, clone NCAM16.2, BD Horizon cat. no. 563041, 1:200). For human peripheral blood samples, we additionally used hHLA-DR (APC-Cy7, clone L243, Biolegend cat. no. 307618, 1:200). Pre-complexed Siglec-Fc/Strep-Tactin-AF647 (described above) was added to the antibody cocktail, added to cells, and allowed to stain at 4 °C for 45 min. The cells were then centrifuged at 300 rcf for 5 min and resuspended in flow buffer containing 1 µg/mL propidium iodide prior to analysis by flow cytometry.
(§4) Flow cytometry was performed on a BD LSRFortessa™ X-20 cell analyzer using BD FACSDiva Software Version 8.0.1 and data was processed using FlowJo LLC. Version 9.9.6 and Graphpad Prism 8. The live, single cell populations were gated out with two gates to obtain the median fluorescence intensity (MFI), which indicates binding of the Siglec-Fc-secondary complex to the cell surface. Control cells that were incubated with Strep-Tactin-AF647 (0.55 μg/mL, 0.57 pmol) was used to determine the baseline fluorescence. Number of cells (# cells) plotted indicates percentage of max (% max).

basophils (CCR3+) = assay: as above; type: cell-based, human; set-up: key: median fluorescence intensity (MFI) of Siglec-Fc complex binding; conditions: replicate values
Description: as §1, §2, §3, §4

monocytes (CD14+) = assay: as above; type: cell-based, human; set-up: key: median fluorescence intensity (MFI) of Siglec-Fc complex binding; conditions: replicate values
Description: as §1, §2, §3, §4

[1] = test system: monocytes (CD14+), human splenocytes; assay: Siglec-Fc binding to splenocytes, flow cytometry; type: cell-based; conditions: Suppl Fig 12; three replicate columns
Description: as §3, §4

[2] = test system: NK cells (CD56+), human splenocytes; assay: Siglec-Fc binding to splenocytes, flow cytometry; type: cell-based; conditions: Suppl Fig 12; three replicate columns
Description: as §3, §4

[3] = test system: B-cells (CD19+), human splenocytes; assay: Siglec-Fc binding to splenocytes, flow cytometry; type: cell-based; conditions: Suppl Fig 12; three replicate columns
Description: as §3, §4

[4] = test system: T-cells (CD3+), human splenocytes; assay: Siglec-Fc binding to splenocytes, flow cytometry; type: cell-based; conditions: Suppl Fig 12; three replicate columns
Description: as §3, §4

U937 cells = assay: Flow cytometry, Siglec-Fc pre-complexed with Strep-Tactin, streptavidin or anti-human IgG1; type: cell-based; conditions: U937; Strep-Tactin-AF647; replicates, Fig. 2
Description: as §2, §4

[5] = test system: neutrophils (CD15+), human splenocytes; assay: Siglec-Fc (CD22-Fc V1/V2, with or without Fc receptor block) binding to splenocytes, flow cytometry; type: cell-based; conditions: Suppl Fig 12; three replicate columns
Description: as §3, §4

NK cells (CD56+) = assay: Siglec ligands on peripheral blood immune cells, flow cytometry; type: cell-based, human; conditions: replicate values
Description: as §3, §4

neutrophils (CD15+) = assay: as above; type: cell-based, human; conditions: replicate values
Description: as §3, §4

cDCs (CD123dim/HLA-DR+) = assay: as above; type: cell-based, human; conditions: cDC; replicate values
Description: as §3, §4

pDCs (CD123high/HLA-DR+) = assay: as above; type: cell-based, human; conditions: pDC; replicate values
Description: as §3, §4

B-cells (CD19+) = assay: as above; type: cell-based, human; conditions: replicate values
Description: as §3, §4

T-cells (CD3+) = assay: as above; type: cell-based, human; conditions: replicate values
Description: as §3, §4

MDA-MB-231 = assay: Flow cytometry, pre-complexed Siglec-Fc binding to breast cancer cell line; type: cell-based; conditions: Strep-Tactin-AF647, replicates
Description: as §2, §4

T47D = assay: as above; type: cell-based; conditions: Strep-Tactin-AF647, replicates
Description: as §2, §4

HS578T = assay: as above; type: cell-based; conditions: Strep-Tactin-AF647, replicates
Description: as §2, §4

MDA-MB-468 = assay: as above; type: cell-based; conditions: Strep-Tactin-AF647, replicates
Description: as §2, §4

ZR-75-1 = assay: as above; type: cell-based; conditions: Strep-Tactin-AF647, replicates
Description: as §2, §4

BT549 = assay: as above; type: cell-based; conditions: Strep-Tactin-AF647, replicates
Description: as §2, §4

MCF7 = assay: as above; type: cell-based; conditions: Strep-Tactin-AF647, replicates
Description: as §2, §4

K562 cells = assay: Flow cytometry, pre-complexed Siglec-Fc binding; type: cell-based; conditions: Strep-Tactin-AF647, replicates
Description: as §2, §4

HuH7 cells = assay: Flow cytometry, pre-complexed Siglec-Fc binding; type: cell-based; conditions: Strep-Tactin-AF647, replicates
Description: as §2, §4

HEK293T cells = assay: Flow cytometry, pre-complexed Siglec-Fc binding; type: cell-based; conditions: HEK; Strep-Tactin-AF647; replicates
Description: as §2, §4

Jurkat cells = assay: Flow cytometry, pre-complexed Siglec-Fc binding; type: cell-based; conditions: Strep-Tactin-AF647, replicates
Description: as §2, §4

A549 cells = assay: Flow cytometry, pre-complexed Siglec-Fc binding; type: cell-based; conditions: Strep-Tactin-AF647, replicates
Description: as §2, §4

[6] = test system: peripheral blood immune cells; assay: Comparison of 2-step and pre-complexed Siglec-Fc binding, flow cytometry (Figure 3e-g); type: cell-based, human; conditions: Figure 3g

Molecule | Siglec-Fc binding (Figure 3d) (eosinophils (Siglec-8+)) | Siglec-Fc binding (Figure 3d) (basophils (CCR3+)) | Siglec-Fc binding (Figure 3d) (monocytes (CD14+)) | Binding, Monocytes [1] | Binding, NK [2] | Binding, B-cells [3] | Binding, T-cells [4] | binding of pre-complexed Siglec-Fc (MFI) (U937 cells) | Binding, Neutrophils [5] | Siglec-Fc binding (Figure 3d) (NK cells (CD56+)) | Siglec-Fc binding (Figure 3d) (neutrophils (CD15+)) | Siglec-Fc binding (Figure 3d) (cDCs (CD123dim/HLA-DR+)) | Siglec-Fc binding (Figure 3d) (pDCs (CD123high/HLA-DR+)) | Siglec-Fc binding (Figure 3d) (B-cells (CD19+)) | Siglec-Fc binding (Figure 3d) (T-cells (CD3+)) | binding of pre-complexed Siglec-Fc (MFI) (MDA-MB-231) | binding of pre-complexed Siglec-Fc (MFI) (T47D) | binding of pre-complexed Siglec-Fc (MFI) (HS578T) | binding of pre-complexed Siglec-Fc (MFI) (MDA-MB-468) | binding of pre-complexed Siglec-Fc (MFI) (ZR-75-1) | other results
Sig-16 R120A: Siglec-16-Fc essential arginine mutant (protein, UniProt A6NMB1 17-434, looked up, variant R120A, extracellular domain fused to human IgG1 Fc, Siglec-16-Fc essential arginine mutant) extracellular domain: NKDPSYSLQVQRQVPVPEGLCVIVSCNLSYPRDGWDESTAAYGYWFKGRTSPKTGAPVATNNQSREVAMSTRDRFQLTGDPGKGSCSLVIRDAQREDEAWYFFAVERGSRVRHSFLSNAFFLKVTALTQKPDVYIPETLEPGQPVTVICVFNWAFKKCPAPSFSWTGAALSPRRTRPSTSHFSVLSFTPSPQDHDTDLTCHVDFSRKGVSAQRTVRLRVASLELQGNVIYLEVQKGQFLRLLCAADSQPPATLSWVLQDRVLSSSHPWGPRTLGLELPGVKAGDSGRYTCRAENRLGSQQRALDLSVQYPPENLRVMVSQANRTVLENLRNGTSLRVLEGQSLRLVCVTHSSPPARLSWTWGEQTVGPSQPSDPGVLQLPRVQMEHEGEFTCHARHPLGSQRVSLSFSVHCKSGPMTG | 41.1 and 56.9 and 14.4 | 82.2 and 51.9 and 97 | 46.2 and 59 and 12.8 | 17.2 and 15.5 and 13.2 | -1.72 and -0.57 and 2.3 | 9.76 and 13.2 and 11.5 | -5.17 and -4.02 and -2.3 | 90.2 and 97.8 and 102 | 16.1 and 20.7 and 14.4 | 38.5 and 45.7 and 13.8 | 44.9 and 39.4 and 8.1 | 66.8 and -25.7 and 30.8 | 74.5 and -8.98 and 57.8 | 32.1 and 52.6 and -2.57 | 25.7 and 12.5 and 15.5 | 111 and 118 and 117 | 75.5 and 80.8 and 81.8 | 116 and 119 and 110 | 81.8 and 84.5 and 83.4 | 171 and 183 and 144 | binding of pre-complexed Siglec-Fc (MFI) (BT549): 124 and 130 and 128; binding of pre-complexed Siglec-Fc (MFI) (MCF7): 102; binding of pre-complexed Siglec-Fc (MFI) (K562 cells): 80.4 and 84.2 and 88.7; binding of pre-complexed Siglec-Fc (MFI) (HuH7 cells): 131 and 130 and 128; binding of pre-complexed Siglec-Fc (MFI) (HEK293T cells): 70.6 and 77.5 and 78.9; binding of pre-complexed Siglec-Fc (MFI) (Jurkat cells): 74.2 and 80.5 and 83; binding of pre-complexed Siglec-Fc (MFI) (A549 cells): 103 (2×) and 108
Sig-3 R119A: CD33-Fc essential arginine mutant (protein, UniProt P20138 18-259, looked up, variant R119A, extracellular domain fused to human IgG1 Fc, CD33-Fc essential arginine mutant) extracellular domain: DPNFWLQVQESVTVQEGLCVLVPCTFFHPIPYYDKNSPVHGYWFREGAIISRDSPVATNKLDQEVQEETQGRFRLLGDPSRNNCSLSIVDARRRDNGSYFFAMERGSTKYSYKSPQLSVHVTDLTHRPKILIPGTLEPGHSKNLTCSVSWACEQGTPPIFSWLSAAPTSLGPRTTHSSVLIITPRPQDHGTNLTCQVKFAGAGVTTERTIQLNVTYVPQNPTTGIFPGDGSGKQETRAGVVH | 15.4 and -50.1 and 11.6 | 73.2 and 10.3 and 39.8 | 74.5 and -10.3 and 64.2 | 22.5 and 51.6 and 43.8 | 16.9 and 14.2 and 13.6 | 24.9 and 27 and 31.3 | 9.87 and 7.5 and 8.87 | 103 and 139 and 125 | 20.7 and 30.4 and 24.9 | 3.81 and -14.1 and 12.8 | 27 and -33.4 and 14.1 | 28.2 and -2.85 and 34.7 | 43.6 and 23.1 and 53.9 | 147 and 5.13 and 27 | 11.6 and -14.1 and 8.98 | 133 (2×) and 138 | 88.8 and 95.2 (2×) | 127 (2×) and 130 | 85.3 and 88 and 88.8 | 212 and 223 and 240 | binding of pre-complexed Siglec-Fc (MFI) (BT549): 140 and 148 and 151; binding of pre-complexed Siglec-Fc (MFI) (MCF7): 107 and 105 and 113; binding of pre-complexed Siglec-Fc (MFI) (K562 cells): 73.5 and 79.6 and 81.1; binding of pre-complexed Siglec-Fc (MFI) (HuH7 cells): 85.3 and 88.8 and 87.9; binding of pre-complexed Siglec-Fc (MFI) (HEK293T cells): 86.5 and 94.1 and 92.2; binding of pre-complexed Siglec-Fc (MFI) (Jurkat cells): 101 and 105 and 109; binding of pre-complexed Siglec-Fc (MFI) (A549 cells): 196 and 195 and 188
Siglec-9-Fc R120A (protein, UniProt Q9Y336 18-348, looked up, variant R120A, extracellular domain fused to human IgG1 Fc) extracellular domain: QTSKLLTMQSSVTVQEGLCVHVPCSFSYPSHGWIYPGPVVHGYWFREGANTDQDAPVATNNPARAVWEETRDRFHLLGDPHTKNCTLSIRDARRSDAGRYFFAMEKGSIKWNYKHHRLSVNVTALTHRPNILIPGTLESGCPQNLTCSVPWACEQGTPPMISWIGTSVSPLDPSTTRSSVLTLIPQPQDHGTSLTCQVTFPGASVTTNKTVHLNVSYPPQNLTMTVFQGDGTVSTVLGNGSSLSLPEGQSLRLVCAVDAVDSNPPARLSLSWRGLTLCPSQPSNPGVLELPWVHLRDAAEFTCRAQNPLGSQQVYLNVSLQSKATSGVTQG |  |  |  |  |  |  |  |  |  |  |  |  |  |  |  |  |  |  |  |  | Siglec-9-Fc Binding ([6]; 2-Step): 43.3 and 45.1 and 40.9; Siglec-9-Fc Binding ([6]; Precomplex): 42 and 53.2 and 47.5
